According to article PMC3760615 (The Journal of Cell Biology, 2013):

Target: T1, recombinant His-tagged drebrin ADFH-CC construct (human, UniProt Q16643 1-256)
T1 sequence: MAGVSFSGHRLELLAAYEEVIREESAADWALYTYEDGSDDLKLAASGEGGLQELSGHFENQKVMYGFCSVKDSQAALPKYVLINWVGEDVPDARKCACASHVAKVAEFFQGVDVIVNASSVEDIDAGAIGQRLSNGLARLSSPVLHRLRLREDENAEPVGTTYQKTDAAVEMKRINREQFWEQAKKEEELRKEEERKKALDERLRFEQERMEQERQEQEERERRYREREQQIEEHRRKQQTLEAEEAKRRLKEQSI
Assay: co-sedimentation

- binding result: binds
B1: recombinant His-tagged drebrin BB (blue box) domain (domain or fragment)
chain: VLAAPVEPATADATEIHDAADTIETDTATADTTVANNVPPAATSLIDLWPGNGEGASTLQGEPRAPTPPSGTEVTLAEVPLLDEVAPEPLLPAGEGCATLLNFDELPEPPATFCDPEEVEGESLAAPQTPTLPSALEELEQEQEPEPHLLTNGETTQKEGTQASEGYFSQSQEEEFAQSEELCAKAPPPVFYNKPPEIDITCWDADPVPEEEEGFEGGD
